Assay: label from the status in PepcDB records
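Also: failed if final PepcDB status was selected cloned or expressed and not failed if soluble or beyond.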

Sequence | protein production
MEIKNIKEFEKASKKLQKDTLKIALALLFLIGAALLALIFGQANSKGLLLIFAAVIGGYMAMNIGANDVSNNVGPAVGSKAISMGGAILIAAICEMLGAIIAGGEVVSTIKGRIVSPEFINDAHIFINVMLASLLSGALWLHVATLIGAPVSTSHSVVGGIMGAGMAAAGMVAVNWHFLSGIVASWVISPLMGALIAMFFLMLIKKTIAYKEDKKSAALKVVPYLVALMSLTFSWYLIVKVLKRLYALNFEIQLACGCILALLIFILFKRFVLKKAPQLENSHESINELFNVPLIFAAALLSFAHGANDVANAIGPLAAISQTLEDANSPIGNTLSSVPLWIMVVGAAGIALGLSLYGPKLIKTVGSEITELDKMQAFCIALSAVITVLLASQLGLPVSSTHIVVGAVFGVGFLRERLREQSRRRFARIRDNIVAAHFGEDLEEIEGFLERFDKANLKEKSLMLESLKKSKNTAIALELKKKEKKSLKKVYKEEVIKRSILKKIVTAWLVTVPVSALLGALLFVALGFIEKYF | failed
MELWIGITFASAFLQNLRSTLQKHLKGMMGTTGATFVRFVFGMPFALAYLAFLHLGLGRPLPVPNMSFAGWATVGAMAQIAATFLLVHLFSFRNFAVGTAYSRTEPAQAALFALIFIGESITGGTLAAIAISVAGVMLISVARTQVTPASFLTSIFSRTAGIGLASGAFFGLSSVAYRSASLALAPSLPAPDAMMQAGFTLVVVIVMQTVSMFLWIIWREREELPRIAKVWKPSLAVGFVGATASFGWFTAMTLQQAAVVKALAQVEMLFAFASTVLFFKEKINRLELSGCMLIVVGVLSLLAFG | failed
TARKCLLEKVEVITGEEAESNVLQMQCKLFVFDKTSQSWVERGRGLLRLNDMASTDDGTLQSRLVMRTQGSLRLILNTKLWAQMQIDKASEKSIHITAMDTEDQGVKVFLISASSKDTGQLYAALHHRILALRSRVE | not failed
MVIDQTDPIYVLFHDEEWGVPVRDDKKLFELLVFSQALAEFSWPSILRRRDDFRKLFEEFDPSAIAQFTEKRLMSLRVNGCLILSEQKLRAIVENAKSVLKVKQEFGSFSNYCWRFVNHKPLRNGYRYGRQVPVKSPKAEYISKDMMQRGFRCVGPTVMYSFLQASGIVNDHLTACFRYQECNVETERETKSHETETKLDLHSPLLV | failed
MPTIKDYYLPKRPTLLFSLHPEPTQAIINGTKILEYRRRFFARPFQAFVYTTGDNGGIQLFLRCDQGLQLVPEQLALVGALLQHDAPTTTAAYFEGAKAGLALPITAFTTLPNIPLAQLRRQFENFVTPRSYVFLDQPDRQAQLDWLLTQPCESLTILDWRKRYAALATLLQKLEHHHHHH | not failed
MSRASVTIGARRNGAIKAAAHARIRPVANSSCLAISRQMQHRYTMFEPKPQNPALAAALIFAATAFIAGTTLLAKALGTGALGPALPALQISHGRFLFALAVILSIVAATRPRLSRPHWGLHLGRTSFGWAGVTLMFAAVAYIPMADATAIAFLNPVFGMLLAIPLLGERVGPWRWGAAVIALVGALILLRPTPGSFQPAALLALAAAAVMGMELIFIKKLAGRERPIQILLVNNAMGLAIASLAVWPVWQAPLPAQWAALAGIGLLMACAQICFVNGMARADASFVAPFSYGTLVFAALYDLAVFQVWPDAISLGGAAIILTGALTLAWREGRVRRP | failed
MAPKPVAVDAGHYRGTWLEIGRMPMLLTDGCVAGYSTYRQGKSADEVLVEDGCREGTPQGKLKTINGVGKIEDFASTKAKMRVRYPLLITFNYWVLYKSPDKSWFISANPSTEDVWVYARSVPSKAKLNRMMMKVRELGYDVKKLEFPLEHHHHHH | not failed
MAEERSLNGEATGQDDESFFDSDQQGDDGKSTELNQKIGDLESQNQELARDNDAINRKIESLTAEIEELRGAESKAKRKMGEMEREIDKSDEERKVLEAIASRASELETEVARLQHELITARTEGEEATAEAEKLRSEISQKGGGIEELEKEVAGLRTVKEENEKRMKELESKLGALEVKELDEKNKKFRAEEEMREKIDNKEKEVHDLKEKIKSLESDVAKGKTELQKWITEKMVVEDSLKDSEKKVVALESEIVELQKQLDDAEKMINGLKNVVEEPLNGIEFKSWSPNVTAVGSGGAVAAVAVAVAGAAVVCYIYHSRRV | failed
MKLVTYNIQYGIGLDGQYDVARIADAVRGADVVALQEVTRNNPRNGGRDMVAEIGEALPDYFAVYGSNFEANIGSRIENGRAITTTFQLGNMMLSKTPIHLSRNLLLPRSRSFEMMNFQRGALEALIETPLGFIRFYSIHLDHRSPVERASQIQFLRRRLLNYALEGGALSGVAEIGLPELPHPEAFVAMGDFNMLAGSPEYVELAGRPDHQFGMPLTADFAVDAAVRLNVTGDDLASWVDPKDPANTSRHKRIDYVFTSASPARSLQHLWVDHQATGSDHLPVWAELG | failed
AIPQHEHPMIIAGFGRFGQIIARNARLNHIGFTAIDNNLQQIDFVRRYGGTLYYGDITQPDILRAAGIEKAKVFILAIDDVEDSMNVARHIRLNYPQITLMVRARDRYQVHLLRDLGVEHIWRETYLSSLGMAYRALCELGIP | failed
MAQFYSAKRRTTTRQIITVSVNDLDSFGQGVARHNGKTLFIPGLLPQENAEVTVTEDKKQYARAKVVRRLSDSPERETPRCPHFGVCGGCQQQHASVDLQQRSKSAALARLMKHEVSEVIADVPWGYRRRARLSLNYLPKTQQLQMGFRKAGSSDIVDVKQCPILVPQLEALLPKVRACLGSLQAMRHLGHVELVQATSGTLMILRHTAPLSSADREKLECFSHSEGLDLYLAPDSEILETVSGEMPWYDSNGLRLTFSPRDFIQVNAGVNQKMVARALEWLDVEPEDRVLDLFCGMGNFTLPLATQAASVVGVEGVPALVEKGQQNARLNGLQNVTFYHENLEEDVTKQPWAKNGFDKVLLDPARAGAAGVMQQIIKLEPIRIVYVSCNPATLARDSEALLKAGYTIARLAMLDMFPHTGHLESMVLFSRVK | not failed
MKWKKSLAGLSSYKPGKREEEVMAELGLTKITKLSSNENPLGTSKKVAAIQANSSVETEIYPDGWASSLRKEVADFYQLEEEELIFTAGVDELIELLTRVLLDTTTNTVMATPTFVQYRQNALIEGAEVREIPLLQDGEHDLEGMLNAIDEKTTIVWICNPNNPTGNYIELADIQAFLDRVPSDVLVVLDEAYIEYVTPQPEKHEKLVRTYKNLIITRTFSKIYGLASARVGYGIADKEIIRQLNIVRPPFNTTSIGQKLAIEAIKDQAFIGECRTSNANGIKQYEAFAKRFEKVKLYPANGNFVLIDLGIEAGTIFSYLEKNGYITRSGAALGFPTAVRITIGKEEDNSAVIALLEKLL | not failed
MRVSMTLFRSKENHRMLNNFAKLNGGDDVRMGADVPADALVDRLLVGFFYGPSDRLPEVLHVSNQLVRTKESYPFLPFCASQSHIWKPGDPLRHLEPFTLNPWCIIPYVNPRSQDFPFPELNEIKSQQLYFDHLLGIKKLPTMTLDVPKSHHFQPKLSRLKTHHNFPYLADFVIKVPTTIFSFIVAISLLL | failed
MLLEQQKQLISLIQAAVAQCLPEAQAQVQLERPKVAAHGDIATNVAMQLAKPARRNPRELAQGIVDALMAQPQARELIQDAEIAGPGFINFRLTPAARQAVVQAVASQADA | failed
MTIPTSYLNHTDAEAARKARATYRDGLVAPTSGIAPGFTQANMIVLPRDWAFDFLLYAQRNPKPCPVLDVSDPGSPTTLLAPGADLRTDLPLYRIWRDGKLAEETADATSAWAERDDLVAFLIGCSFTFETPMVEAGIEIRHMTDKSNVPMYLTNRPCRPAGRLKGNMVVSMRPIPASRVADAATISGRFPAVHGAPVHVGAPEQIGISDLSKPDFGDAVRIEPGEVPVFWACGVTPQAAVMASGVPFAITHAPGHMFITDIPDTAYHALEHHHHHH | not failed
MSDLVSYHLDDGVATLTLNNGKVNAISPDVIIAFNAALDQAEKDRAIVIVTGQPGILSGGYDLKVMTSSAEAAINLVAQGSTLARRMLSHPFPIIVACPGHAVAKGAFLLLSADYRIGVAGPFSIGLNEVQIGMTMHHAGIELARDRLRKSAFNRSVINAEMFDPEGAMAAGFLDKVVSVEELQGAALAVAAQLKKINMNAHKKTKLKVRKGLLDTLDAAIEQDRQHML | not failed
AIASSAIERKSLDPSEEPVDEVLQIPPSLLTCGGCQQNIGDRYFLKAIDQYWHEDCLSCDLCGCRLGEVGRRLYYKLGRKLCRRDYLRLFGQDGLCASCDKRIRAYEMTMRVKDKVYHLECFKCAACQKHFCVGDRYLLINSDIVCEQDIYEWTKINGMI | failed
MKLLLVGEVRDGRVTAETAELFGFAACFSAEVSMVLAGSTDDLPSFEGKLYRADGVNAFDLACHKRLVLAAVEREQPDAVVFLHSSHGWELAPRVAFAMQSAQVSGVVGLDDGGYVVESCNGKMRRTVKPLTDRVVLTLQLGAFDAPAMAGIPEVTALDVEPDSTIEFLDCVQPERGIDLTRAGVIVSAGRGVGSAERVELVRALADALGGEVGASRPVVDAGWLERARQVGSSGQSVSPALYVACGISGAIQHLAGMKGSGFVLAINTDRDTPITSVADVLAVADVAEFLSALTAAIRARR | failed
MSGKNIVFLVLLLFIPVSLAAHYLEWGDLIVFITAGLAILPLAAWMGAATEEIAVVVGPTLGGLLNATFGNATELIIALVALNAGLVNVVKASITGSIIGNLLLVMGLSMLLGGLRHKEQTFQPIVARVNASAMNLAVIAILLPTAMNYTAQGIGEETLQYLSVAVAVVLILVYILTLIFSMKTHAYLYDVGVAEIETEENPHPKPNILLWSGVLLVCTLLVAVESELLVDALEVATSQLGLTALFTGVILVPIVGNAAEHATAVTVAMKDKMDLSVSVAVGSSMQIALFVAPVLVIAGWILGQPMDLDFQPFELVAVVVSVLIANSISSDGKSNWLEGTLLLAAYTVLGFAFYFHPDVGGLG | failed
MLNQSNELNAWDRDHFFHPSTHMGTHARGESPTRIMAGGEGVTVWDNNGRKSIDAFAGLYCVNVGYGRQKIADAIATQAKNLAYYHAYVGHGTEASITLAKMIIDRAPKGMSRVYFGLSGSDANETNIKLIWYYNNVLGRPEKKKIISRWRGYHGSGVMTGSLTGLDLFHNAFDLPRAPVLHTEAPYYFRRTDRSMSEEQFSQHCADKLEEMILAEGPETIAAFIGEPILGTGGIVPPPAGYWEKIQAVLKKYDVLLVADEVVTGFGRLGTMFGSDHYGIKPDLITIAKGLTSAYAPLSGVIVADRVWQVLVQGSDKLGSLGHGWTYSAHPICVAAGVANLELIDEMDLVTNAGETGAYFRAELAKAVGGHKNVGEVRGDGMLAAVEFVADKDDRVFFDASQKIGPQVATALAASGVIGRAMPQGDILGFAPPLCLTREQADIVVSKTADAVKSVFANL | not failed
MLMDGHTHTELCPHGSGEATEKMIQRAIQLGFQRYCITEHAPLPPAFRDQYEGTPAGYTEASLRENQVADYLALANGLKTKYAGQIEISVGFEVDFLPEHVAWTRDFLNTYGPRTQESILSVHFMRGLRQHFWCVDMSTDDFAAGFGQWLKTPQRVFEQYYQTVLASVQADLGPYAPQRIGHMSLVRKYQDYFGLTEPLDVHNLQLVDQTLALVKQQRRQLDLNLAGLYKPYCNDFYPGEQILQRAQKLDIPLVYGSDAHDIASVGRGYHLIKKLIEGLEHHHHHH | failed
NDDIIVNWVNRTLSEAGKSTSIQSFKDKTISSSLAVVDLIDAIQPGCINYDLVKSGNLTEDDKHNNAKYAVSMARRIGARVYALPEDLVEVKPKMVMTVFACLMGRGMKRV | not failed

Source: a protein production outcome set (Wang et al. 2014)
